Patent publication US20080214461

T1: activated factor VIII (FVIIIa): Recombinate Antihemophilic Factor activated with thrombin, P00451
T1 chain: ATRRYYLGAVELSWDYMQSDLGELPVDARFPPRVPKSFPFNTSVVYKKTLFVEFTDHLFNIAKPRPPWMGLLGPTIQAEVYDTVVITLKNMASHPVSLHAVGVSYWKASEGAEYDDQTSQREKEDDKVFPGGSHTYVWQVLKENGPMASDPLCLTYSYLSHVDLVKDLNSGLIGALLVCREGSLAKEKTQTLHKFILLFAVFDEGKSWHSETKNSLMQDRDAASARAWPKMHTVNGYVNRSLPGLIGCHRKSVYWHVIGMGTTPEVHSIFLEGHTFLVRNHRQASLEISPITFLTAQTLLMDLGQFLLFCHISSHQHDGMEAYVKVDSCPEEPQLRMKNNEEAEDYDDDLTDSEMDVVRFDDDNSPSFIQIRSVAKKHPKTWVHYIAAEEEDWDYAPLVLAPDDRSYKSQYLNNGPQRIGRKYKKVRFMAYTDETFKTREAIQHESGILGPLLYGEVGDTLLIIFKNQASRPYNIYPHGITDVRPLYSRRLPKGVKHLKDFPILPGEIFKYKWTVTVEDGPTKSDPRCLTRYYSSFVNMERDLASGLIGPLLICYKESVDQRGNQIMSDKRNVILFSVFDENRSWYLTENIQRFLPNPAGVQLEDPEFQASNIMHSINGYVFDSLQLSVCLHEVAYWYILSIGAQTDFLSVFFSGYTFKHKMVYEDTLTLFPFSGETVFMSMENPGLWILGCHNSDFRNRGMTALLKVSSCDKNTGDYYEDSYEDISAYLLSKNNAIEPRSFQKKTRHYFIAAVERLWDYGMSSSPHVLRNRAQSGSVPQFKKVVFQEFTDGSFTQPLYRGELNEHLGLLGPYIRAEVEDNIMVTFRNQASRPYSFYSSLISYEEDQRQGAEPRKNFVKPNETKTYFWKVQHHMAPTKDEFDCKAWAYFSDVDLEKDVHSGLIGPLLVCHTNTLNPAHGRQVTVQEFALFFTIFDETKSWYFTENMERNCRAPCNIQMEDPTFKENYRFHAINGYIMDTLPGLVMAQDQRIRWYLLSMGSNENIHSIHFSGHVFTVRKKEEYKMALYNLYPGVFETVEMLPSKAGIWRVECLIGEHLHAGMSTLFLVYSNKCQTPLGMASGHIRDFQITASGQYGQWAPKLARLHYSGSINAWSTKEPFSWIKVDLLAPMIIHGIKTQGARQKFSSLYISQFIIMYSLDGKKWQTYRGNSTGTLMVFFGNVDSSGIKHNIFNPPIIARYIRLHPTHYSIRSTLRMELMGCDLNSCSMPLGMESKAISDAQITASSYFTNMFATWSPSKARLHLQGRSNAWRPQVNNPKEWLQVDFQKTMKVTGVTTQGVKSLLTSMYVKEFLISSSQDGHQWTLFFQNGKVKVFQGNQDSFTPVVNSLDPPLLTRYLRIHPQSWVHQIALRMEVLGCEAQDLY

B1: FIX-Y94F/K98T/Y177F (recombinant, full length, HEK 293), activated form (protein)
chain: YNSGKLEEFVQGNLERECMEEKCSFEEAREVFENTERTTEFWKQYVDGDQCESNPCLNGGSCKDDINSYECWCPFGFEGKNCELDVTCNIKNGRCEQFCKNSADNKVVCSCTEGYRLAENQKSCEPAVPFPCGRVSVSQTSKLTRAEAVFPDVDYVNSTEAETILDNITQSTQSFNDFTRVVGGEDAKPGQFPWQVVLNGKVDAFCGGSIVNEKWIVTAAHCVETGVKITVVAGEHNIEETEHTEQKRNVIRIIPHHNFNAAINTYNHDIALLELDEPLVLNSYVTPICIADKEYTNIFLKFGSGYVSGWGRVFHKGRSALVLQYLRVPLVDRATCLRSTKFTIFNNMFCAGFHEGGRDSCQGDSGGPHVTEVEGTSFLTGIISWGEECAMKGKYGIYTKVSRYVNWIKEKTKLT
B2: FIX-Y94F/A95aK/K98T/Y177F (recombinant, full length, HEK 293), activated form (protein)
chain: YNSGKLEEFVQGNLERECMEEKCSFEEAREVFENTERTTEFWKQYVDGDQCESNPCLNGGSCKDDINSYECWCPFGFEGKNCELDVTCNIKNGRCEQFCKNSADNKVVCSCTEGYRLAENQKSCEPAVPFPCGRVSVSQTSKLTRAEAVFPDVDYVNSTEAETILDNITQSTQSFNDFTRVVGGEDAKPGQFPWQVVLNGKVDAFCGGSIVNEKWIVTAAHCVETGVKITVVAGEHNIEETEHTEQKRNVIRIIPHHNFNKAINTYNHDIALLELDEPLVLNSYVTPICIADKEYTNIFLKFGSGYVSGWGRVFHKGRSALVLQYLRVPLVDRATCLRSTKFTIFNNMFCAGFHEGGRDSCQGDSGGPHVTEVEGTSFLTGIISWGEECAMKGKYGIYTKVSRYVNWIKEKTKLT
B3: FIX-Y94F/K98T/Y177F/I213V/E219G (recombinant, full length, HEK 293), activated form (protein)
chain: YNSGKLEEFVQGNLERECMEEKCSFEEAREVFENTERTTEFWKQYVDGDQCESNPCLNGGSCKDDINSYECWCPFGFEGKNCELDVTCNIKNGRCEQFCKNSADNKVVCSCTEGYRLAENQKSCEPAVPFPCGRVSVSQTSKLTRAEAVFPDVDYVNSTEAETILDNITQSTQSFNDFTRVVGGEDAKPGQFPWQVVLNGKVDAFCGGSIVNEKWIVTAAHCVETGVKITVVAGEHNIEETEHTEQKRNVIRIIPHHNFNAAINTYNHDIALLELDEPLVLNSYVTPICIADKEYTNIFLKFGSGYVSGWGRVFHKGRSALVLQYLRVPLVDRATCLRSTKFTIFNNMFCAGFHEGGRDSCQGDSGGPHVTEVEGTSFLTGIVSWGEGCAMKGKYGIYTKVSRYVNWIKEKTKLT
B4: FIX-Y94F/A95aK/K98T/Y177F/I213V/E219G (recombinant, full length, HEK 293), activated form (protein)
chain: YNSGKLEEFVQGNLERECMEEKCSFEEAREVFENTERTTEFWKQYVDGDQCESNPCLNGGSCKDDINSYECWCPFGFEGKNCELDVTCNIKNGRCEQFCKNSADNKVVCSCTEGYRLAENQKSCEPAVPFPCGRVSVSQTSKLTRAEAVFPDVDYVNSTEAETILDNITQSTQSFNDFTRVVGGEDAKPGQFPWQVVLNGKVDAFCGGSIVNEKWIVTAAHCVETGVKITVVAGEHNIEETEHTEQKRNVIRIIPHHNFNKAINTYNHDIALLELDEPLVLNSYVTPICIADKEYTNIFLKFGSGYVSGWGRVFHKGRSALVLQYLRVPLVDRATCLRSTKFTIFNNMFCAGFHEGGRDSCQGDSGGPHVTEVEGTSFLTGIVSWGEGCAMKGKYGIYTKVSRYVNWIKEKTKLT

What was measured:
[1] = molecular target: T1, activated factor VIII (FVIIIa): …

Sequence of factor X (FX), P00742 (P00742 whole entry, looked up): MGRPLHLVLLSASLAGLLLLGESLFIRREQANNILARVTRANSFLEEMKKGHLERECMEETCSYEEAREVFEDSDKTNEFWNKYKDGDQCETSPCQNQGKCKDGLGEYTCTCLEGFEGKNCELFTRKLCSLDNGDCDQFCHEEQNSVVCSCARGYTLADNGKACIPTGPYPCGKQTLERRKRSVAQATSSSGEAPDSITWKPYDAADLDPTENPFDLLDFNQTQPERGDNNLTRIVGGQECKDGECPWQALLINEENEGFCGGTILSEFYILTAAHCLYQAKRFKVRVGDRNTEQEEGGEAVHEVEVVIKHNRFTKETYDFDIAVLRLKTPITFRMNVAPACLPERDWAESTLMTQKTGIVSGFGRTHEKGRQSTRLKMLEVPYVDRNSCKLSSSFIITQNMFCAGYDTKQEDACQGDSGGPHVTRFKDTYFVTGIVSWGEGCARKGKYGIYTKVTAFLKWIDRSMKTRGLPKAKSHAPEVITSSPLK

Protein	ratio kcat/KM +/- FVIIIa (FX activation) [1]	KM (nM), FX activation with FVIIIa (factor X (FX), P00742)	KM (nM), FX activation without FVIIIa (factor X (FX), P00742)	kcat (10^-3 min^-1), FX activation without FVIIIa (factor X (FX), P00742)	kcat (min^-1), FX activation with FVIIIa (factor X (FX), P00742)	kcat/KM (10^-6 nM^-1 min^-1), FX activation without FVIIIa (factor X (FX), P00742)	kcat/KM (nM^-1 min^-1), FX activation with FVIIIa (factor X (FX), P00742)	rate of FX activation against pdFIXa (factor X (FX), P00742)	fold increase of kcat of FX activation against pdFIX (factor X (FX), P00742)
B1	16,424	14 nM	68 nM	0.000333 s⁻¹	68 min⁻¹	4880 M⁻¹ s⁻¹	8.33e+07 M⁻¹ s⁻¹	FIX-WT and FIX-Y94F/K98T/Y177F activated FX at the same rate as pdFIXa	–
B2	5,705	20 nM	73 nM	6.67e-05 s⁻¹	7 min⁻¹	950 M⁻¹ s⁻¹	–	–	–
B3	9,581	17 nM	40 nM	0.00222 s⁻¹	528 min⁻¹	54900 M⁻¹ s⁻¹	5.33e+08 M⁻¹ s⁻¹	–	enhanced the kcat by a factor of 17 and 6, respectively
B4	8,354	13 nM	55 nM	0.00102 s⁻¹	122 min⁻¹	18200 M⁻¹ s⁻¹	1.5e+08 M⁻¹ s⁻¹	–	enhanced the kcat by a factor of 17 and 6, respectively
